Measured values: patent publication US7026443
Read-outs that look alike come from different tables or passages of the source.

Experiments:
HLA-A*1101 (human) [1] = experiment: competition with 125I-radiolabeled standard probe peptide for purified HLA-A*1101, gel filtration
HLA-A*0301 (human) [2] = experiment: competition against a 125I-labeled standard probe peptide for purified HLA-A*0301, gel filtration; relative binding
HLA-A*0201 (human) [3] = experiment: competition with a 125I-labelled probe peptide for purified HLA-A*0201, gel filtration
HLA-A*1101 (human) [4] = experiment: competition with a 125I-labeled standard probe peptide for purified HLA-A*1101, gel filtration
HLA-A*0301 (human) [5] = experiment: competition of unlabeled peptide against 125I-labeled standard probe peptide for purified HLA-A*0301, gel filtration
HLA-A*1101 (human) [6] = experiment: competition with 125I-labelled standard probe peptide for purified HLA-A*1101, gel filtration
HLA-A*0201 (human) [7] = experiment: competition with a 125I-labeled standard peptide for purified HLA-A*0201, gel filtration; ratio to the standard peptide
[8] = biological target: HLA-A*0201 (purified HLA class I molecule) (human); experiment: competition with 125I-labeled standard peptide for purified HLA-A*0201, gel filtration; ratio to the standard peptide
HLA-A*0301 (human) [9] = experiment: competition with a 125I-labelled standard peptide for purified HLA-A*0301, gel filtration; value relative to the standard peptide
HLA-A*0101 (human) [10] = experiment: competition with 125I-labelled standard peptide for purified HLA-A*0101, bound and free separated by gel filtration
HLA-A*1101 (human) [11] = experiment: inhibition of binding of a 125I-labelled standard peptide to purified HLA-A*1101, with gel filtration separation
HLA-A*0301 (human) [12] = experiment: competition of unlabeled peptide with 125I-labeled standard probe peptide for purified HLA-A*0301, gel filtration
HLA-A*1101 (human) [13] = experiment: competition with 125I-labeled standard probe peptide for purified HLA, gel filtration
HLA-A*0301 (human) [14] = experiment: as above
HLA-A*1101 (human) [15] = biological target: HLA-A*1101 (human)
HLA-A*0301 (human) [16] = biological target: HLA-A*0301 (human)
HLA-A*0301 (human) [17] = biological target: HLA-A*0301 (human); remark: listed apart in the source
[18] = biological target: purified HLA-A*0201 molecules (human); experiment: competition with 125I-labelled standard probe peptide for purified HLA-A*0201; bound and free peptide separated by gel filtration
HLA-A*1101 (human) [19] = experiment: competition against a 125I-labelled standard probe peptide for purified HLA-A*1101, bound and free separated by gel filtration; value relative to the standard peptide
HLA-A*0101 (human) [20] = biological target: HLA-A*0101 (human)
[21] = biological target: HLA-A*0201 (purified HLA class I molecule) (human); experiment: competition assay: unlabeled peptide inhibits binding of a 125I-labeled standard probe peptide to purified HLA-A*0201, gel filtration read-out
HLA-B*5301 (human) = experiment: competition with 125I-labelled standard peptide for purified HLA, gel filtration; relative binding
HLA-B*3501 (human) = experiment: as above
HLA-B*0702 (human) = experiment: as above
HLA-B*5101 (human) = experiment: as above
HLA-A*1101 (human) [22] = experiment: competition of unlabeled peptide with 125I-labeled standard probe peptide for purified HLA-A*1101, gel filtration
HLA-A*1101 (human) [23] = experiment: competition binding assay; purified HLA-A*1101, unlabeled peptide against 125I-labeled probe peptide, gel filtration

With WTYFDTYMR (modifications not checked) [HPV18 E1 peptide … (position 536, 9 amino acids)] the relative binding ratio (IC50 of standard peptide / IC50 of test peptide) (HLA-A*1101 (human) [1]) was 0.012 and the binding affinity ratio (IC50 of the standard peptide / IC50 of the test peptide) (HLA-A*0301 (human) [2]) was 0.0005.

In the case of AIFGVNPTI (modifications not checked) [HPV18 E1 246 peptide … (SEQ ID NO: 3274)], the relative binding ratio (IC50 of standard peptide / IC50 of test peptide) (ratio to standard peptide) (HLA-A*0201 (human) [3]) is reported as 0.0021.

Work on AFRDLCIVY (modifications not checked) [HPV16 E6 peptide … (position 53, 9 amino acids; SEQ ID NO: 40120)] yielded a relative binding ratio (IC50 of standard peptide / IC50 of test peptide) (HLA-A*1101 (human) [4]) of 0.0001.

With LCPEEKQRH (modifications not checked) [HPV31 E6 peptide … (position 110, 9 amino acids)] the relative binding ratio (IC50 of standard peptide / IC50 of test peptide) (ratio to standard peptide) (HLA-A*0301 (human) [5]) was 0.0003 and the relative binding ratio (IC50 of standard peptide / IC50 of test peptide) (ratio to standard peptide) (HLA-A*1101 (human) [6]) was 0.0001.

With LLTTNIHPA (modifications not checked) [HPV18 E1 peptide … (position 570, 9 amino acids)] the relative binding ratio (IC50 of standard peptide / IC50 of test peptide) (HLA-A*0201 (human) [7]) was 0.18.

In the case of CLDCKWGVLI (modifications not checked) [HPV45 E1 peptide … (position 259, 10 amino acids)], the relative binding ratio (IC50 of standard peptide / IC50 of test peptide) [8] is reported as 0.0002.

With GVLILALLR (modifications not checked) [HPV45 E1 peptide … (position 265, 9 amino acids)] the relative binding ratio (IC50 of standard peptide / IC50 of test peptide) (HLA-A*0301 (human) [9]) was 0.0058.

With ELRHYSDSVY (modifications not checked) [HPV18 E6 77 peptide …] the relative binding ratio (IC50 of the standard peptide / IC50 of the test peptide) (ratio to standard peptide) (HLA-A*0101 (human) [10]) was 0.0037.

In the case of YNIVTFCCK (modifications not checked) [HPV16 E7 position 52 9-mer peptide … (SEQ ID NO: 40241)], the relative binding ratio (IC50 of standard peptide / IC50 of test peptide) (HLA-A*1101 (human) [11]) is reported as 0.0022.

LILALLRYK (modifications not checked) [HPV45 E1 267-275 peptide … (SEQ ID NO: 37427)] gave a relative binding ratio (IC50 of the standard peptide / IC50 of the test peptide) (HLA-A*0301 (human) [12]) of 0.27.

For YVQAIVDKK (modifications not checked) [HPV18 E1 peptide … (position 19, 9 amino acids)], the relative binding ratio (IC50 of standard peptide / IC50 of test peptide) (HLA-A*1101 (human) [1]) was 0.029, the relative binding ratio (IC50 of standard peptide / IC50 of test peptide) (ratio to standard peptide) (HLA-A*1101 (human) [13]) was 0.029 and the relative binding ratio (IC50 of standard peptide / IC50 of test peptide) (ratio to standard peptide) (HLA-A*0301 (human) [14]) was 0.0005. It also gave a binding affinity ratio (IC50 of the standard peptide / IC50 of the test peptide) (HLA-A*0301 (human) [2]) of 0.0005.

CATMCRHYK (modifications not checked) [HPV16 E1 peptide … (position 405, 9 amino acids)] was tested, and the binding affinity ratio (IC50 of standard peptide / IC50 of test peptide) (HLA-A*6801 (human)) was 0.0056, the binding affinity ratio (IC50 of standard peptide / IC50 of test peptide) (HLA-A*1101 (human) [15]) was 0.0098 and the binding affinity ratio (IC50 of standard peptide / IC50 of test peptide) (HLA-A*3101 (human)) was 0.0077. For the same binder, the binding affinity ratio (IC50 of standard peptide / IC50 of test peptide) (HLA-A*3301 (human)) was 0.01, the binding affinity ratio (IC50 of standard peptide / IC50 of test peptide) (HLA-A*0301 (human) [16]) was 0.0012 and the relative binding ratio (IC50 of standard peptide / IC50 of test peptide) (ratio to standard peptide) (HLA-A*0301 (human) [17]) was 0.0012.

MVQWAYDNDI (modifications not checked) [HPV16 E1 360 peptide …] was tested, and the binding affinity ratio (IC50 of the standard peptide / IC50 of the test peptide) [18] was 0.0001.

Binder QVLHVLKRK (modifications not checked) [HPV18 E1 peptide … (position 80, 9 amino acids)] has a relative binding ratio (IC50 of standard peptide / IC50 of test peptide) (HLA-A*1101 (human) [19]) of 0.002.

For KISEYRHYCY (modifications not checked) [HPV16 E6 79 …], the binding affinity ratio (IC50 of standard peptide / IC50 of test peptide) (HLA-A*0101 (human) [20]) was 0.009.

GDTPEWIQR (modifications not checked) [HPV45 E1 peptide … (position 327, 9 amino acids)] showed a relative binding ratio (IC50 of standard peptide / IC50 of test peptide) (HLA-A*0301 (human) [9]) of 0.0008.

With LLITSNINA (modifications not checked) [HPV31 E1 peptide … (position 542, 9 amino acids)] the relative binding ratio (IC50 of standard peptide / IC50 of test peptide) [21] was 0.0022.

With SPRLQEISL (modifications not checked) [HPV45 E1 110 … (B07 supermotif peptide, 9 amino acids)] the binding affinity ratio (IC50 of standard peptide / IC50 of test peptide) (HLA-B*5301 (human)) was 0.0002, the binding affinity ratio (IC50 of standard peptide / IC50 of test peptide) (HLA-B*3501 (human)) was 0.0008 and the binding affinity ratio (IC50 of standard peptide / IC50 of test peptide) (HLA-B*0702 (human)) was 0.62. The binding affinity ratio (IC50 of standard peptide / IC50 of test peptide) (HLA-B*5101 (human)) was 0.0005.

Work on TMLCMCCK (modifications not checked) [HPV18 E7 60-67 peptide TMLCMCCK (SEQ ID NO: 41224)] yielded a binding affinity ratio (IC50 of standard peptide / IC50 of test peptide) (ratio relative to standard peptide) (HLA-A*1101 (human) [22]) of 0.024.

PLCPEEKQR (modifications not checked) [HPV31 E6 peptide … (position 109, 9 amino acids)] was tested, and the relative binding ratio (IC50 of standard peptide / IC50 of test peptide) (ratio to standard peptide) (HLA-A*0301 (human) [5]) was 0.0002 and the relative binding ratio (IC50 of standard peptide / IC50 of test peptide) (ratio to standard peptide) (HLA-A*1101 (human) [6]) was 0.0005.

Binder EGTGCNGWFY (modifications not checked) [HPV31 E1 position 10 peptide … (SEQ ID NO: 41699)] has a binding affinity ratio (relative to the standard peptide) (HLA-A*1101 (human) [23]) of 0.0002.
